Test: yeast display, Sf9 membrane polyspecificity reagent, FACS + sequencing; frameworks hold sequencing errors
Summary of the method: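 After 36–48 hours of galactose induction, yeast (Saccharomyces cerevisiae BJ5465) displaying a synthetic nanobody library were stained at 4 °C for 1 hour with 10% biotinylated, detergent-solubilized Sf9 membrane reagent. Streptavidin microbeads enriched the stained cells before FACS sorting into low and high (top ~1%) gates on anti-HA and streptavidin fluorescence. Each clone's polyreactivity label reflects its gate of origin.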

| Sequence | polyreactivity (PSR sort gate) |
| --- | --- |
| QVQLVESGGGLVQAGGSLRLSCAASGSTFQANAMGWYRQAPGKERELVAAISSRGGITYYADSVKGRFTISRDNAKNTVYLQMNSLKPEYTAVYYSNALPRCTYRQGLGVRLYYWGQGTQVTVSS | high polyreactivity |
| QDQLVESGGGLVQAGGSLRLSCAASGRIFTGNAMGWYRQAHGKERELVAAISASGSSTYYADSVKGRFTISRDNAKNTVYLQMNSLKPEDTAVYYCAADGWYGYYYWGQGTLVTVSS | high polyreactivity |
| QVQLVESGGGLVQAGGSLRLSCAASGGTFARNTMGWYRQAPGKERELVAAITRGGSSTYYADSVKGRFTISRDNAKNTVYLQMNSLKPEDTAVYYCNKSLRWRYPYYGTTGRYDYWGQGTQVTVSS | high polyreactivity |
| QVQLVESGGGLVQAGGSLRLSCAASGFTSLIYAMGWSRQAPGKESELVATITWGGGSTYADSVKGRFTISRDNAKNTVYLQMNSLKPEDTAVYYCNADIYDSWDYATVYSDRYDYWGQGTQVTVSS | low polyreactivity |
| QVQLVESGGGLVQAGGSLRLSCAASGSTLGRNAMGWYRQAPGKERELVAAISSTGGSTSYADSVKGRFTISRDNAKNTVYLQMNSLKPEDTAVYYCAKRFSPRYYYWGQGTQVTVSS | high polyreactivity |
| QLQLVESGGGLVQAGGSLRLSCAASGLTYEGYAMGWYRQAPGKERELVAAITGSGSTTYYADSVKGRFTISRDNAKNTVYLQMNSLKPEDSAVYYCAADVSYKLYWGQGTQVTVSS | low polyreactivity |
| QVQLVESGGGLVQAGGSLRLSCAASGSTLHSYAMGWYRQAPGKERELVAALSFRGGSTYADSVKGRFTISRDNAKNTVYLQMNSLKPEDTAVYYCATRSTRADWYIVGYDYWGQGTQVTVSS | low polyreactivity |
| QVQLVESGGGLVQAGGSLRLSCSASGRTFLYDMGWYTHATGKELELVAAISRGGSTSYADSVKGRFTISRDNAKNTVYLQMNSLKPEDTAVYYCATRGLVGYYSYYYWGQGTQVTVSS | high polyreactivity |
| QVQLVESGGGLVQAGGSLRLSCAASGRIIYRYAMGWYRQAPGKERELVAAISYRGGSTYYADSVKGRFTISRDNAKNTVYLQMNSLKPEDTAVYYCAADRRYYDWRYGGFDYWGQGTQVTVSS | high polyreactivity |
| QVQLVESGGGLVQAGGSLRLSCAASGRIFDYYAMAWYRQAPGKERELVSAISSNGVSTYYADSVKGRFTISRDNPKNTVYLQMNSLKPEDTAVYYCAADPTRHSSFPQYDSWGQGTQVTVSS | low polyreactivity |
| QVQLVESGGGLVQAGGSLRLSCAASGYIFAVYAMGWYIQAPGKEREFVAVITWRGGSTYYADSVKGRFTISRDNAKNTVYLHMNSLKPEDTAVYYCAADVYAQYDYWGQGTQVTVSS | high polyreactivity |
| QVQHVDSGGGLVQAGGSLRLSCAASGSTFSLNAMGWYRQAPGKERELVAAISSGDSTNYADSVKGRFTISRDNAKNTVYLQMNSVKPEDTAVYYCAVEVYYTGFYYSPYAYDYWGQGTQVTVSS | low polyreactivity |
| QVHLVESGGGLVQAGGSLRLSCADYGRTFSRYAMGWYRQAPGKERELVATINSRAGITNYPDTVKGRFTISRDNAKNTVYLQMTSLKPEDTAVYYCNRGRPGGPSWYHFDYWGQGSQVTVSS | high polyreactivity |
| QVQLVESGGVLVQAGGSLRLSCAASGFIFSSNAMGWCREAPGKERELVAAITGGGGRTRYADSVKGRFTISRDNAKNTVYLQMNSLKPEDTAVYYCAAEVYSIWWYDYWGQGTQVTVSS | high polyreactivity |
| QVQLVESGGGLVQAGGSLRLSCAASGRIFRYNAMGWYRQAPGKERELVAAISWSGGSTYYADSVKGRFTISRDNAKNTVYLQMNSLKPEDTAVYYCNARYRYSVTGYDYWGQGTQVTVSS | high polyreactivity |
| QVQLVESGGGLVQAGGSLRLSCAASGRIFARNAMGWYRPEPGKERELVAGITWSTASTYYADSVKGRFTISLDNAKNTVYLQMNSLKPEDTAVYYCAADSYYYYDYWYVYLYDYWGQGTQVTVSS | high polyreactivity |

| Sequence | polyreactivity (PSR sort gate) |
| --- | --- |
| QVQLVESGGGLVQAGGSLRLSCAASGNIFLYYAMGWYRQAPGNERELVADIDSSGASTYYADSVKGRFTISRDNAKNTVYFQMNSLKPEDTAVYYCASEFHWWYAGYDYGYWGQGTQVTVSS | low polyreactivity |
| QVQLVESGGGLVQAGGSLRLTCAASGYTFVLNALGWYRQAPGKEREFVAAITWSGGSTYYADSVKGRFTISRDNAKNTVYLQMNSLKAEDTAVYYCAADPDSGQVPFDYWGQGTQVTVSS | low polyreactivity |
| QVQLVESGGGLVQAGGSLRLSCAASGYTIRYYAMGWYRQAPGKERELVAAISYSGGRTYYADSVKGRFTISRDNAKNTDYLQMNSLKPEDTAVYYCNAGYYSYRYRYGYDYWGQGTQVTVSS | high polyreactivity |
| QVQLVESGGGLVQAGGSLRLSSDASGRILAGYAMGWYRQAPGKERELVAAITRGGTTYYADYVKGRFTISRDNAKNTVYLQINSMKPEDTAVVYTVSSAQYDFWGQGTQVTVSS | low polyreactivity |
| QVQLVESVVGLVQAGGILRLSCSASGSTLPWYAMGWYRQAPGKERELVAAISYRGGSTYYADSVKGRFTISRDNAKNTVYLQLNSLKPEDTAVYYCAARFYFQPLWYKGYYWGQGTQVTVSS | high polyreactivity |
| QVQLVESGGGLVQAGGRLRLSCASSGGTLSRYAMGWYRQAPGKERELVAAINWIGGRTSYADSVKGRFTISRDNAKNTVYLQMKSLKPEDTAVYYCAAQYYYAPPWRKYDYWGQGTQVTVSS | high polyreactivity |
| QVQLVESGGGLVQAGGSLRLSCAASGTTISNYAMGWYRQAPGKERELVAGIDWSGGSTYYADSVKGRFTISRDNAKNTVYLHMNSLKPEDTAVYYCAKRVWYHGRKLRGYYWGQGTQVTVSS | low polyreactivity |
| QVQLVESGGGLVQAGGSLRLSCAASGSTFDSYAMGWYRQAPGKERELVAAITTTGGSTFYADSVKGRFTISRDNAKNTVYLQMNSLKPEDTAVYYCAADDGWQEFEYWGQGTQVTVSS | low polyreactivity |
| QVQLVESGGGLVQAGGSLRLSCAASGRIFGANARGWYRQAPGKERELVATITYGGTSTYYADSVKGRFTISRDNAKNTVYLQMNSLKPEDTAVYYCAADGYSVFAAILGEYFDYDYWGQGTQVTVSS | low polyreactivity |
| QVQLVESGGGLVQAGGSLRLSCAASGITFYRYVMGWYRQAPGKERELVAAITSRGGSTSYADSVKGRFTISRDNAKNTVYLQMNSLKPEDTAVYNCAADLSGWGRDARGAYDYWGQGPQVTVSS | high polyreactivity |
| QDQLVESGGGLVHAGGSLRISCAASGRILYAYPMGWYRQAPGKERELVAAINWSGGSTYYADSVKGRFTISRDNAKNTVYLQMNSLKPEDTAVYYCNRVLDPTNKYYYWGQGTQVTVSS | high polyreactivity |
| QVQHVESGGGLVQAGGSLRLSCAASGFTYVVYDMGWYRPAPGKERELVAVITNSGGSTYYADSEKGRFTISRDNAKNTVYLQMNSLKPEDTAVYYCNTENFYGSDIFDSWGQGTQVTVSS | low polyreactivity |
| QVQLVESAGGLVQAGGTLRLSCAASGSIFQFYAMGWYRHAPGKERELVAVITTSGVSTYYADSVKGRFTISRDNAKNTVYLQMNSLKPEDTGVYYCAARQWTSASYDYWGQGSQVTVSS | low polyreactivity |
| QVQLVESGGGLVQAGGSLRLICAASGRSFDYYAMGWYRQAPGKERDLVAAITSGGTTTYYADSVKGRFTISRDNAKNTVYVQMNSLKPEDYAVYYCAKYPYHIYHTDGDYWGQGTQVTVSS | low polyreactivity |
| QDQIVESGGGLVQAGGSLRLSCAASGRTFGVNTMGWSRQAPGKVREMVASISTSGGSTYADSVKGRFTISRDNPKNTVYLQMNSLKPEDSAVYYCAKDTDAVYDEFDSWGQGTQVTVSS | low polyreactivity |
